Laboratory results taken from US20210388083A1.

Experiments:
[1] = biological target: histidine-tagged human FcγRIIIa-158V (human) (UniProt P08637); experiment: BLI (Octet Red384); His-tagged receptor on anti-Penta-HIS biosensor; antibody 15.6-500 nM, PBS pH 7.2; global 1:1 fit
[2] = biological target: histidine-tagged mouse FcRn (mouse) (UniProt Q61559); experiment: BLI (Octet Red384); His-tagged receptor (row moFcRn) on anti-Penta-HIS biosensor; antibody 75-1000 nM, PBS pH 5.8; global 1:1 fit
[3] = biological target: histidine-tagged human FcRn (human) (UniProt P55899); experiment: BLI (Octet Red384); His-tagged receptor (row FcRn) on anti-Penta-HIS biosensor; antibody 75-1000 nM, PBS pH 5.8; global 1:1 fit
[4] = biological target: histidine-tagged mouse FcRn (mouse) (UniProt Q61559); experiment: BLI (Octet Red384); His-tagged receptor on anti-Penta-HIS biosensor; antibody 75-1000 nM, PBS pH 5.8; global 1:1 fit
[5] = biological target: histidine-tagged human FcRn (human) (UniProt P55899); experiment: as above
[6] = biological target: histidine-tagged human FcγRIIIa-158F (human) (UniProt P08637); experiment: BLI (Octet Red384); His-tagged receptor (row FcγRIIIA (F158)) on anti-Penta-HIS biosensor; antibody 125-4000 nM, PBS pH 7.2; global 1:1 fit
[7] = biological target: histidine-tagged mouse FcγRIV (mouse); experiment: BLI (Octet Red384); His-tagged receptor (row moFcγRIV) on anti-Penta-HIS biosensor; antibody 125-4000 nM, PBS pH 7.2; global 1:1 fit
[8] = biological target: histidine-tagged human FcγRIIIa-158V (human) (UniProt P08637); experiment: BLI (Octet Red384); His-tagged receptor (row FcγRIIIA (V158)) on anti-Penta-HIS biosensor; antibody 125-4000 nM, PBS pH 7.2; global 1:1 fit
[9] = biological target: histidine-tagged mouse FcγRIV (mouse); experiment: BLI (Octet Red384); His-tagged receptor on anti-Penta-HIS biosensor; antibody 125-4000 nM, PBS pH 7.2; global 1:1 fit
[10] = biological target: histidine-tagged human FcγRIIIa-158F (human) (UniProt P08637); experiment: as above
[11] = biological target: histidine-tagged human FcγRIIIa-158V (human) (UniProt P08637); experiment: as above

Kd [1] [nM]	koff [1] [s⁻¹]	kon [1] [M⁻¹ s⁻¹]	Kd [2] [nM]	Kd [3] [nM]	Kd [4] [nM]	Kd [5] [nM]	Kd [6] [nM]	Kd [7] [nM]	Kd [8] [nM]	Kd [9] [nM]	Kd [10] [nM]	Kd [11] [nM]	Substance
115	0.017	150000											antigen-binding molecule specific for HER3 comprising GASD Fc, human IgG1 (G1m3 allotype) (antibody)
24	0.0052	220000											antigen-binding molecule specific for HER3 comprising GASDALIE Fc, human IgG1 (G1m3 allotype) (antibody)
35	0.0072	200000											antigen-binding molecule specific for HER3 comprising GASDIE Fc, human IgG1 (G1m3 allotype) (antibody)
317			15.1	33.7	15.1	33.7	2230	544	661	544	2230	661	antigen-binding molecule specific for HER3 comprising Wildtype (WT) Fc, human IgG1 (G1m3 allotype) (antibody)
